Measurements published in PMC5814829.

T1: ScPif1p E681G (Saccharomyces cerevisiae, UniProt P07271 237-780, E681G)
T1 sequence: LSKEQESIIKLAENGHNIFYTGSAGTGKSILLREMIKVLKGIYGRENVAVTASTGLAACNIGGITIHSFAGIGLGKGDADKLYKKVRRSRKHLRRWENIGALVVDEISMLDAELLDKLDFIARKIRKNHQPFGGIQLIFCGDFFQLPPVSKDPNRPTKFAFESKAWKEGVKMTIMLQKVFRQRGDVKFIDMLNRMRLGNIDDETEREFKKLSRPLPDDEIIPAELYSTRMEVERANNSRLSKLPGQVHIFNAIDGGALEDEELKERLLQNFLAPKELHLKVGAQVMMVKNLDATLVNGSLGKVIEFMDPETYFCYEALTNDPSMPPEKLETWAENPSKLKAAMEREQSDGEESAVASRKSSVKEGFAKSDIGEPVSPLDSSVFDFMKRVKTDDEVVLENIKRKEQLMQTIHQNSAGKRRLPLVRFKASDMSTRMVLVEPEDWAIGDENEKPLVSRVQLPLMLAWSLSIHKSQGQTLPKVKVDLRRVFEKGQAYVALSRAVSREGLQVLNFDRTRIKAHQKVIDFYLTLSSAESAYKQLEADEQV

T2: ScPif1p R324N (Saccharomyces cerevisiae, UniProt P07271 237-780, R324N)
T2 sequence: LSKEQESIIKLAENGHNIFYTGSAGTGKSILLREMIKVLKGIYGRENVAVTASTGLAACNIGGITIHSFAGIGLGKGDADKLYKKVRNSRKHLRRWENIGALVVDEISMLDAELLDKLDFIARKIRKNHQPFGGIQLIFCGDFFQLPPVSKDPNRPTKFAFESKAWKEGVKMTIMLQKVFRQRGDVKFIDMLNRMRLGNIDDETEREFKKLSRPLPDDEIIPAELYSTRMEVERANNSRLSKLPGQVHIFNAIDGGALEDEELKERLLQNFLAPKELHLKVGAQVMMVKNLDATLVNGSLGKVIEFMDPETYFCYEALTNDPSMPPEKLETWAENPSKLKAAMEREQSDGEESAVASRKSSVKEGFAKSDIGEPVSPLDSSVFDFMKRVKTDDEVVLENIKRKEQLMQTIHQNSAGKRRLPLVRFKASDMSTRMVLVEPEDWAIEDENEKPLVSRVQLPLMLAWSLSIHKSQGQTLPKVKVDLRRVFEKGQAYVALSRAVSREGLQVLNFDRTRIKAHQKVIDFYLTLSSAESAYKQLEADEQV

T3: ScPif1p R323A (Saccharomyces cerevisiae, UniProt P07271 237-780, R323A)
T3 sequence: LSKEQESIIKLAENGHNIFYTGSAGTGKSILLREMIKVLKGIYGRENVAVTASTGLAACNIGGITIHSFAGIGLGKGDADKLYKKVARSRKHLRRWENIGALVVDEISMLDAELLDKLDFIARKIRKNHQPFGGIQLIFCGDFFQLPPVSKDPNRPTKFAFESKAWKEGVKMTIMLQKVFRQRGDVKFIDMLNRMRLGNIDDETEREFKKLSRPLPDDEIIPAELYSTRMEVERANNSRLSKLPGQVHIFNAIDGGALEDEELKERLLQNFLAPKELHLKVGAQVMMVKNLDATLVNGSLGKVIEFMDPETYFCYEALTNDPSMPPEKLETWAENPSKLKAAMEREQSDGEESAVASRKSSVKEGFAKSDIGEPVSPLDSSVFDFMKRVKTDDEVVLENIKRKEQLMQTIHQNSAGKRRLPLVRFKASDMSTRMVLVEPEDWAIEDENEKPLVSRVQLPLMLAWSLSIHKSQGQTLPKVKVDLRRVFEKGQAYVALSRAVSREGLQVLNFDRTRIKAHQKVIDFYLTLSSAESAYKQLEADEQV

T4: ScPif1p DM (Saccharomyces cerevisiae, UniProt P07271 237-780, E242A;K273A;R281A)
T4 sequence: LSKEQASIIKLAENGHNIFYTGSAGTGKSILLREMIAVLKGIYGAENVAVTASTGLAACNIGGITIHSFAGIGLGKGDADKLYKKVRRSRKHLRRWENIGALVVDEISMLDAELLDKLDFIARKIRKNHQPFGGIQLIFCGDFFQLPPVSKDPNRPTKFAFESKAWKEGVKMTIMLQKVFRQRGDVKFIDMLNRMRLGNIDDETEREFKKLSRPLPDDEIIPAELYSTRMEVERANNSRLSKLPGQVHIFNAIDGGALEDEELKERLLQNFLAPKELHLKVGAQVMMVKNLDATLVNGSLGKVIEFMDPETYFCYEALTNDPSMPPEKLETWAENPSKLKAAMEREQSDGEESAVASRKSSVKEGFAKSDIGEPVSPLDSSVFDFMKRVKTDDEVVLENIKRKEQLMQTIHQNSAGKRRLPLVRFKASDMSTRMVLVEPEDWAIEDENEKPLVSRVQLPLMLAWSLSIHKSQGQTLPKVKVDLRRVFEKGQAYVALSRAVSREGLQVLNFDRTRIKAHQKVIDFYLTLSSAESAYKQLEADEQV


Tests used:
Assay in all cases: fluorescence anisotropy
[1] = target: T1, ScPif1p E681G
[2] = target: T2, ScPif1p R324N
[3] = target: T3, ScPif1p R323A
[4] = target: T4, ScPif1p DM

Binder | Kd [1] | Kd [2] | Kd [3] | Kd [4]
AGGGTGGGTGGGTGGGT (structured_DNA) [F-G417] | 76.5 ± 10.5 nM | 87.9 ± 7.1 nM | 25.1 ± 1.4 nM | 23.8 ± 2.5 nM
dsDNA16bp (dsDNA) DNA 1: CTCTGCTCGACGGATT DNA 2: AATCCGTCGAGCAGAG | 56.1 ± 11.6 nM | 57.9 ± 1.1 nM | 100 ± 5.1 nM | 95.5 ± 8.5 nM
GTGTGTGTGGTG (ssDNA) [GR12] | 12.4 ± 3.9 nM | 11.4 ± 4.3 nM | 9.9 ± 0.4 nM | 13.4 ± 0.8 nM
